According to article PMC11090974, “Structural basis for the distinct roles of non-conserved Pro116 and conserved Tyr124 of BCH domain of yeast p50RhoGAP” (Cellular and Molecular Life Sciences: CMLS, 2024):
Where “and” joins values, the source holds several entries; their conditions need not be identical. Equal entries are not always repeated.

Molecular target: the molecule itself
Test: AUC; sedimentation velocity, 2.4 mg/ml, absorbance at 280 nm, 40,000 rpm, 24 °C, analysed with Sedfit

Protein	stoichiometry N
BCH domain of S. pombe p50RhoGAP, wild type (YBCH 1-156 a.a) (domain or fragment, UniProt Q9P3B1 1-156, looked up, S. pombe homolog of p50RhoGAP (SPAC1565.02c protein), BCH domain, residues 1-156; The methods tell cloning, expression and purification only for the P116A mutant (parent construct (His)6-SlyD YBCH in pET32a); also called WT YBCH; yeast BCH) MEHDLERLCFIGGYDNDNDKVIVVVTKNLELFKKYDDINLIKEAYNHVHKLIQKDERYTAVFFAHDSTVFSYLGLSLKAYYGMDYYLHKNVKAVYVIHTDWMSKVAIRTLLSIASPKFTRKFRYLNSISDLNKYIPLSHLKLPPIVYEFDRNVEPA	2
P116A mutant of the BCH domain of S. pombe p50RhoGAP (YBCH 1-156 a.a) (domain or fragment, UniProt Q9P3B1 1-156, looked up, S. pombe homolog of p50RhoGAP (SPAC1565.02c protein), BCH domain, residues 1-156, Pro116 to Ala; SlyD tag cleaved with PreScission protease; also called P116A-YBCH; YBCH P116A; source: E. coli BL21 (DE3), purified (Ni-NTA, cation exchange, gel filtration)) MEHDLERLCFIGGYDNDNDKVIVVVTKNLELFKKYDDINLIKEAYNHVHKLIQKDERYTAVFFAHDSTVFSYLGLSLKAYYGMDYYLHKNVKAVYVIHTDWMSKVAIRTLLSIASAKFTRKFRYLNSISDLNKYIPLSHLKLPPIVYEFDRNVEPA	2 and 4
